The chains are these.
B1: R255L (antibody)
heavy: not shown
light: DIQMTQSPSSLSASVGDRVTITCKAGQDIKSYLSWYQQKPGKAPKLLIYYATRLADGVPSRFSGSGSGTDYTLTISSLQPEDFATYYCLQHGESPWTFGGGTKLEIKRTVAAPSVFIFPPSDEQLKSGTASVVCLLNNFYPREAKVQWKVDNALQSGNSQESVTEQDSKDSTYSLSSTLTLSKADYEKHKVYACEVTHQGLSSPVTKSFNRGEC
notes: EU numbering, EU N297 = residue 300 of the chain; the sheets number them 2 and 4; also called huCBE11 altered antibody with mutation R255L; copies: 2 + 2
B2: A287E (antibody)
heavy: not shown
light: DIQMTQSPSSLSASVGDRVTITCKAGQDIKSYLSWYQQKPGKAPKLLIYYATRLADGVPSRFSGSGSGTDYTLTISSLQPEDFATYYCLQHGESPWTFGGGTKLEIKRTVAAPSVFIFPPSDEQLKSGTASVVCLLNNFYPREAKVQWKVDNALQSGNSQESVTEQDSKDSTYSLSSTLTLSKADYEKHKVYACEVTHQGLSSPVTKSFNRGEC
notes: EU numbering, EU N297 = residue 300 of the chain; the sheets number them 2 and 4; also called huCBE11 altered antibody with mutation A287E; copies: 2 + 2
B3: K288E (antibody, human IgG1, kappa)
heavy: not shown
light: DIQMTQSPSSLSASVGDRVTITCKAGQDIKSYLSWYQQKPGKAPKLLIYYATRLADGVPSRFSGSGSGTDYTLTISSLQPEDFATYYCLQHGESPWTFGGGTKLEIKRTVAAPSVFIFPPSDEQLKSGTASVVCLLNNFYPREAKVQWKVDNALQSGNSQESVTEQDSKDSTYSLSSTLTLSKADYEKHKVYACEVTHQGLSSPVTKSFNRGEC
notes: EU numbering, EU N297 = residue 300 of the chain; the sheets number them 2 and 4; also called huCBE11 altered antibody with mutation K288E; copies: 2 + 2
B4: K288D (antibody, human IgG1, kappa)
heavy: not shown
light: DIQMTQSPSSLSASVGDRVTITCKAGQDIKSYLSWYQQKPGKAPKLLIYYATRLADGVPSRFSGSGSGTDYTLTISSLQPEDFATYYCLQHGESPWTFGGGTKLEIKRTVAAPSVFIFPPSDEQLKSGTASVVCLLNNFYPREAKVQWKVDNALQSGNSQESVTEQDSKDSTYSLSSTLTLSKADYEKHKVYACEVTHQGLSSPVTKSFNRGEC
notes: EU numbering, EU N297 = residue 300 of the chain; the sheets number them 2 and 4; also called huCBE11 altered antibody with mutation K288D; copies: 2 + 2
B5: K288M (antibody)
heavy: not shown
light: DIQMTQSPSSLSASVGDRVTITCKAGQDIKSYLSWYQQKPGKAPKLLIYYATRLADGVPSRFSGSGSGTDYTLTISSLQPEDFATYYCLQHGESPWTFGGGTKLEIKRTVAAPSVFIFPPSDEQLKSGTASVVCLLNNFYPREAKVQWKVDNALQSGNSQESVTEQDSKDSTYSLSSTLTLSKADYEKHKVYACEVTHQGLSSPVTKSFNRGEC
notes: EU numbering, EU N297 = residue 300 of the chain; the sheets number them 2 and 4; also called huCBE11 altered antibody with mutation K288M; copies: 2 + 2
B6: A287D (antibody)
heavy: not shown
light: DIQMTQSPSSLSASVGDRVTITCKAGQDIKSYLSWYQQKPGKAPKLLIYYATRLADGVPSRFSGSGSGTDYTLTISSLQPEDFATYYCLQHGESPWTFGGGTKLEIKRTVAAPSVFIFPPSDEQLKSGTASVVCLLNNFYPREAKVQWKVDNALQSGNSQESVTEQDSKDSTYSLSSTLTLSKADYEKHKVYACEVTHQGLSSPVTKSFNRGEC
notes: EU numbering, EU N297 = residue 300 of the chain; the sheets number them 2 and 4; also called huCBE11 altered antibody with mutation A287D; copies: 2 + 2
B7: H285F (antibody)
heavy: not shown
light: DIQMTQSPSSLSASVGDRVTITCKAGQDIKSYLSWYQQKPGKAPKLLIYYATRLADGVPSRFSGSGSGTDYTLTISSLQPEDFATYYCLQHGESPWTFGGGTKLEIKRTVAAPSVFIFPPSDEQLKSGTASVVCLLNNFYPREAKVQWKVDNALQSGNSQESVTEQDSKDSTYSLSSTLTLSKADYEKHKVYACEVTHQGLSSPVTKSFNRGEC
notes: EU numbering, EU N297 = residue 300 of the chain; the sheets number them 2 and 4; also called huCBE11 altered antibody with mutation H285F; copies: 2 + 2
B8: E345R (antibody)
heavy: not shown
light: DIQMTQSPSSLSASVGDRVTITCKAGQDIKSYLSWYQQKPGKAPKLLIYYATRLADGVPSRFSGSGSGTDYTLTISSLQPEDFATYYCLQHGESPWTFGGGTKLEIKRTVAAPSVFIFPPSDEQLKSGTASVVCLLNNFYPREAKVQWKVDNALQSGNSQESVTEQDSKDSTYSLSSTLTLSKADYEKHKVYACEVTHQGLSSPVTKSFNRGEC
notes: EU numbering, EU N297 = residue 300 of the chain; the sheets number them 2 and 4; also called huCBE11 altered antibody with mutation E345R; copies: 2 + 2
B9: V284D (antibody, human IgG1, kappa)
heavy: not shown
light: DIQMTQSPSSLSASVGDRVTITCKAGQDIKSYLSWYQQKPGKAPKLLIYYATRLADGVPSRFSGSGSGTDYTLTISSLQPEDFATYYCLQHGESPWTFGGGTKLEIKRTVAAPSVFIFPPSDEQLKSGTASVVCLLNNFYPREAKVQWKVDNALQSGNSQESVTEQDSKDSTYSLSSTLTLSKADYEKHKVYACEVTHQGLSSPVTKSFNRGEC
notes: EU numbering, EU N297 = residue 300 of the chain; the sheets number them 2 and 4; also called huCBE11 altered antibody with mutation V284D; copies: 2 + 2
B10: huCBE11 altered antibody with mutation M252S (antibody, human IgG1, kappa)
heavy: not shown
light: DIQMTQSPSSLSASVGDRVTITCKAGQDIKSYLSWYQQKPGKAPKLLIYYATRLADGVPSRFSGSGSGTDYTLTISSLQPEDFATYYCLQHGESPWTFGGGTKLEIKRTVAAPSVFIFPPSDEQLKSGTASVVCLLNNFYPREAKVQWKVDNALQSGNSQESVTEQDSKDSTYSLSSTLTLSKADYEKHKVYACEVTHQGLSSPVTKSFNRGEC
notes: Position is in EU numbering
B11: huCBE11 altered antibody with mutation M252T (antibody, human IgG1, kappa)
heavy: not shown
light: DIQMTQSPSSLSASVGDRVTITCKAGQDIKSYLSWYQQKPGKAPKLLIYYATRLADGVPSRFSGSGSGTDYTLTISSLQPEDFATYYCLQHGESPWTFGGGTKLEIKRTVAAPSVFIFPPSDEQLKSGTASVVCLLNNFYPREAKVQWKVDNALQSGNSQESVTEQDSKDSTYSLSSTLTLSKADYEKHKVYACEVTHQGLSSPVTKSFNRGEC
notes: Position is in EU numbering
B12: R255M (antibody)
heavy: not shown
light: DIQMTQSPSSLSASVGDRVTITCKAGQDIKSYLSWYQQKPGKAPKLLIYYATRLADGVPSRFSGSGSGTDYTLTISSLQPEDFATYYCLQHGESPWTFGGGTKLEIKRTVAAPSVFIFPPSDEQLKSGTASVVCLLNNFYPREAKVQWKVDNALQSGNSQESVTEQDSKDSTYSLSSTLTLSKADYEKHKVYACEVTHQGLSSPVTKSFNRGEC
notes: EU numbering, EU N297 = residue 300 of the chain; the sheets number them 2 and 4; also called huCBE11 altered antibody with mutation R255M; copies: 2 + 2
B13: huCBE11 altered antibody with mutation S304D (antibody, human IgG1, kappa)
heavy: not shown
light: DIQMTQSPSSLSASVGDRVTITCKAGQDIKSYLSWYQQKPGKAPKLLIYYATRLADGVPSRFSGSGSGTDYTLTISSLQPEDFATYYCLQHGESPWTFGGGTKLEIKRTVAAPSVFIFPPSDEQLKSGTASVVCLLNNFYPREAKVQWKVDNALQSGNSQESVTEQDSKDSTYSLSSTLTLSKADYEKHKVYACEVTHQGLSSPVTKSFNRGEC
notes: Position is in EU numbering
B14: huCBE11 altered antibody with mutation V282E (antibody, human IgG1, kappa)
heavy: not shown
light: DIQMTQSPSSLSASVGDRVTITCKAGQDIKSYLSWYQQKPGKAPKLLIYYATRLADGVPSRFSGSGSGTDYTLTISSLQPEDFATYYCLQHGESPWTFGGGTKLEIKRTVAAPSVFIFPPSDEQLKSGTASVVCLLNNFYPREAKVQWKVDNALQSGNSQESVTEQDSKDSTYSLSSTLTLSKADYEKHKVYACEVTHQGLSSPVTKSFNRGEC
notes: Position is in EU numbering
B15: V279E (antibody, human IgG1, kappa)
heavy: not shown
light: DIQMTQSPSSLSASVGDRVTITCKAGQDIKSYLSWYQQKPGKAPKLLIYYATRLADGVPSRFSGSGSGTDYTLTISSLQPEDFATYYCLQHGESPWTFGGGTKLEIKRTVAAPSVFIFPPSDEQLKSGTASVVCLLNNFYPREAKVQWKVDNALQSGNSQESVTEQDSKDSTYSLSSTLTLSKADYEKHKVYACEVTHQGLSSPVTKSFNRGEC
notes: EU numbering, EU N297 = residue 300 of the chain; the sheets number them 2 and 4; also called huCBE11 altered antibody with mutation V279E; copies: 2 + 2
B16: H285D (antibody, human IgG1, kappa)
heavy: not shown
light: DIQMTQSPSSLSASVGDRVTITCKAGQDIKSYLSWYQQKPGKAPKLLIYYATRLADGVPSRFSGSGSGTDYTLTISSLQPEDFATYYCLQHGESPWTFGGGTKLEIKRTVAAPSVFIFPPSDEQLKSGTASVVCLLNNFYPREAKVQWKVDNALQSGNSQESVTEQDSKDSTYSLSSTLTLSKADYEKHKVYACEVTHQGLSSPVTKSFNRGEC
notes: EU numbering, EU N297 = residue 300 of the chain; the sheets number them 2 and 4; also called huCBE11 altered antibody with mutation H285D; copies: 2 + 2
B17: D376N (antibody)
heavy: not shown
light: DIQMTQSPSSLSASVGDRVTITCKAGQDIKSYLSWYQQKPGKAPKLLIYYATRLADGVPSRFSGSGSGTDYTLTISSLQPEDFATYYCLQHGESPWTFGGGTKLEIKRTVAAPSVFIFPPSDEQLKSGTASVVCLLNNFYPREAKVQWKVDNALQSGNSQESVTEQDSKDSTYSLSSTLTLSKADYEKHKVYACEVTHQGLSSPVTKSFNRGEC
notes: EU numbering, EU N297 = residue 300 of the chain; the sheets number them 2 and 4; also called huCBE11 altered antibody with mutation D376N; copies: 2 + 2
B18: S304E (antibody, human IgG1, kappa)
heavy: not shown
light: DIQMTQSPSSLSASVGDRVTITCKAGQDIKSYLSWYQQKPGKAPKLLIYYATRLADGVPSRFSGSGSGTDYTLTISSLQPEDFATYYCLQHGESPWTFGGGTKLEIKRTVAAPSVFIFPPSDEQLKSGTASVVCLLNNFYPREAKVQWKVDNALQSGNSQESVTEQDSKDSTYSLSSTLTLSKADYEKHKVYACEVTHQGLSSPVTKSFNRGEC
notes: EU numbering, EU N297 = residue 300 of the chain; the sheets number them 2 and 4; also called huCBE11 altered antibody with mutation S304E; copies: 2 + 2
B19: huCBE11 altered antibody with mutation K290D (antibody, human IgG1, kappa)
heavy: not shown
light: DIQMTQSPSSLSASVGDRVTITCKAGQDIKSYLSWYQQKPGKAPKLLIYYATRLADGVPSRFSGSGSGTDYTLTISSLQPEDFATYYCLQHGESPWTFGGGTKLEIKRTVAAPSVFIFPPSDEQLKSGTASVVCLLNNFYPREAKVQWKVDNALQSGNSQESVTEQDSKDSTYSLSSTLTLSKADYEKHKVYACEVTHQGLSSPVTKSFNRGEC
notes: Position is in EU numbering
B20: L314K (antibody)
heavy: not shown
light: DIQMTQSPSSLSASVGDRVTITCKAGQDIKSYLSWYQQKPGKAPKLLIYYATRLADGVPSRFSGSGSGTDYTLTISSLQPEDFATYYCLQHGESPWTFGGGTKLEIKRTVAAPSVFIFPPSDEQLKSGTASVVCLLNNFYPREAKVQWKVDNALQSGNSQESVTEQDSKDSTYSLSSTLTLSKADYEKHKVYACEVTHQGLSSPVTKSFNRGEC
notes: EU numbering, EU N297 = residue 300 of the chain; the sheets number them 2 and 4; also called huCBE11 altered antibody with mutation L314K; copies: 2 + 2
B21: E345Q (antibody, human IgG1, kappa)
heavy: not shown
light: DIQMTQSPSSLSASVGDRVTITCKAGQDIKSYLSWYQQKPGKAPKLLIYYATRLADGVPSRFSGSGSGTDYTLTISSLQPEDFATYYCLQHGESPWTFGGGTKLEIKRTVAAPSVFIFPPSDEQLKSGTASVVCLLNNFYPREAKVQWKVDNALQSGNSQESVTEQDSKDSTYSLSSTLTLSKADYEKHKVYACEVTHQGLSSPVTKSFNRGEC
notes: EU numbering, EU N297 = residue 300 of the chain; the sheets number them 2 and 4; also called huCBE11 altered antibody with mutation E345Q; copies: 2 + 2

The target in one test is T1, biotinylated human FcRn-huM4Fc fusion protein (human, biotinylated with BiotinXX sulfosuccinimidyl ester (sites not given)).
T1 construct: also called bhFcRnFc; biotinylated Fc/FcRn fusion protein
Nature of the test: AlphaScreen competition at pH 6.0: antibody in solution against human IgG1 acceptor beads for bhFcRnFc on streptavidin donor beads; plotted is IC50 (ug/ml by paragraph 723, no unit on the sheet).
On to B1, for which the binding result was “binds”.

B2: the binding result is on record as “binds”.

For the molecule B3, the binding result is recorded as “binds”.

For the molecule B4, the binding result is “binds”.

With B5, the binding result is on record as “binds”.

A further test concerns the target T1, biotinylated human FcRn-huM4Fc fusion …. Nature of the test: FRET competition at pH 5.8: unlabelled competitor mAb against Eu-labelled h5C8 for bhFcRnFc; plotted is mutant IC50/wt IC50.
For B6, the binding result is recorded as “binds”.

With B7, the binding result is reported as “binds”.

In the case of B8, the binding result is listed as “binds”.

Consider B9, for which the binding result was “binds”.

Turning to B10, the binding result is on record as “binds”.

As to B11, the binding result was “binds”.

With B12, the binding result is listed as “binds”.

Consider B13, for which the binding result is recorded as “binds”.

As for B14, the binding result is recorded as “binds”.

For the molecule B15, the binding result is on record as “binds”.

Regarding B16, the binding result is recorded as “binds”.

Take B17: the binding result is recorded as “binds”.

B18: the binding result is recorded as “binds”.

With B19, the binding result is reported as “binds”.

With B20, the binding result is “binds”.

Consider B21, for which the binding result is reported as “binds”.

These data come from patent publication US20070148164A1 (Biogen, published 2007).
